# Data taken from patent US20150218281A1 (Ablynx, published 2015).
# Changes are numbered by the printed parent chain.
# T1: biotinylated hOX40L (R&D Systems, biotinylated in house) (human, UniProt P23510 51-183, biotinylated with Sulfo-NHS-LC-Biotin, sites not stated)
# T1 construct: same bought protein as m10, biotinylated; also called biotinylated OX40L
# T1 sequence: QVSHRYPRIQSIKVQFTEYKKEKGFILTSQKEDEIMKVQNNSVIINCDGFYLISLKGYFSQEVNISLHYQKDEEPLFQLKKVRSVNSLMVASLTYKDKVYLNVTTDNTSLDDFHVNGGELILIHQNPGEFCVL
# T2: full length human OX40L expressed on CHO cells (human, UniProt P23510 1-183)
# T2 sequence: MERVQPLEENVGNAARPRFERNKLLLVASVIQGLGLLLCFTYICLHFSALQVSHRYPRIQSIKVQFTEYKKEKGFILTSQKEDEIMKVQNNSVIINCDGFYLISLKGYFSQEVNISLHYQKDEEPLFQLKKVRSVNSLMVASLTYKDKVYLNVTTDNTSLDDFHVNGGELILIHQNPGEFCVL
# T3: recombinant human OX40L (extracellular domain, R&D Systems) (human, UniProt P23510 51-183)
# T3 sequence: T1 sequence
# B1: OX40L024 (VHH, not shown: small tags and cut ends)
# VHH: EVQLVESGGGLVQPGGSLRLSCAASGRTFSSIYAKGWFRQAPGKEREFVAAISRSGRSTSYADSVKGRFTISRDNAKNTVYLQMNSLRPEDTAVYYCAAVGGATTVTASEWDYWGLGTLVTVSS
# B2: OX40L039 (VHH, not shown: small tags and cut ends)
# VHH: B1 VHH with E1D, A76S, L116Q
# B3: OX40L026 (VHH, not shown: small tags and cut ends)
# VHH: B1 VHH with L116Q
# B4: OX40L028 (VHH, not shown: small tags and cut ends)
# VHH: B1 VHH with E1D
# B5: OX40L025 (VHH, not shown: small tags and cut ends)
# VHH: B1 VHH with A76S
# B6: OX40L027 (VHH, not shown: small tags and cut ends)
# VHH: B1 VHH with A76S, L116Q
# B7: OX40L075 (VHH, not shown: small tags and cut ends)
# VHH: EVQLVESGGGLVQPGGSLRLSCAASGRSFSTYIMGWFRQAPGKEREFVATISRSGITTRSADSVKGRFTISRDNSKNTVYLQMNSLRPEDTAVYYCAAGPYVEQTLGLYQTLGPWDYWGQGTLVTVSS
# B8: benchmark OX40L blocking mAb (benchmark IgG) (antibody, V domains shown)
# VH: EVQLLESGGGLVQPGGSLRLSCAASGFTFNSYAMSWVRQAPGKGLEWVSIISGSGGFTYYADSVKGRFTISRDNSRTTLYLQMNSLRAEDTAVYYCAKDRLVAPGTFDYWGQGALVTVSS
# VL: DIQMTQSPSSLSASVGDRVTITCRASQGISSWLAWYQQKPEKAPKSLIYAASSLQSGVPSRFSGSGSGTDFTLTISSLQPEDFATYYCQQYNSYPYTFGQGTKLEIKR
# B9: anti-OX40L benchmark Fab (Fab, V domains shown)
# VH: B8 VH
# VL: B8 VL
# notes: papain digest of benchmark IgG; also called LC001 Fab
# B10: OX40L030 (VHH, not shown: small tags and cut ends)
# VHH: DVQLVESGGGLVQAGGSLRLSCAASRSIGRLDRMGWYRHRTGEPRELVATITGGSSINYGDFVKGRFTISIDNAKNTVYLQMNNLKPEDTAVYYCNFNKYVTSRDTWGQGTQVTVSS
# B11: OX40L049 (VHH, not shown: small tags and cut ends)
# VHH: B10 VHH with A14P, F62S, I71R, A74S, N84S, K86R, Q112L
# B12: OX40L048 (VHH, not shown: small tags and cut ends)
# VHH: B10 VHH with A14P, G60A, I71R, A74S, N84S, K86R, Q112L
# B13: OX40L041 (VHH, not shown: small tags and cut ends)
# VHH: B10 VHH with A14P, R40A, I71R, A74S, N84S, K86R, Q112L
# B14: OX40L042 (VHH, not shown: small tags and cut ends)
# VHH: B10 VHH with A14P, T41P, I71R, A74S, N84S, K86R, Q112L
# B15: OX40L045 (VHH, not shown: small tags and cut ends)
# VHH: B10 VHH with A14P, R40A, E43K, I71R, A74S, N84S, K86R, Q112L
# B16: OX40L047 (VHH, not shown: small tags and cut ends)
# VHH: B10 VHH with A14P, R40A, T41P, E43K, I71R, A74S, N84S, K86R, Q112L
# B17: OX40L043 (VHH, not shown: small tags and cut ends)
# VHH: B10 VHH with A14P, E43K, I71R, A74S, N84S, K86R, Q112L
# B18: OX40L050 (VHH, not shown: small tags and cut ends)
# VHH: B10 VHH with A14P, G60A, F62S, I71R, A74S, N84S, K86R, Q112L
# B19: OX40L044 (VHH, not shown: small tags and cut ends)
# VHH: B10 VHH with A14P, R40A, T41P, I71R, A74S, N84S, K86R, Q112L
# B20: OX40L046 (VHH, not shown: small tags and cut ends)
# VHH: B10 VHH with A14P, T41P, E43K, I71R, A74S, N84S, K86R, Q112L
# B21: OX40L053 (VHH, not shown: small tags and cut ends)
# VHH: B10 VHH with A14P, A74S, N84S, K86R, Q112L
# B22: OX40L055 (VHH, not shown: small tags and cut ends)
# VHH: B10 VHH with A14P, I71R, A74S, K86R, Q112L
# B23: OX40L054 (VHH, not shown: small tags and cut ends)
# VHH: B10 VHH with A14P, I71R, N84S, K86R, Q112L
# Molecular target: T1, biotinylated hOX40L (R&D Systems, …)
# Assay: hOX40L/hOX40 AlphaScreen, sample heated 1 min at Tm+10 C
# Method: (§1) Next, streptavidin donor beads were added and incubated for an additional 1 hour. Fluorescence was measured by reading plates on the EnVision Multilabel Plate Reader using an excitation wavelength of 680 nm and an emission wavelength of 520 nm.
# (§2) In the TSA assay, Nanobodies were diluted to a concentration of 0.2 mg/ml and melting temperature (Tm) was determined at different pH by stepwise increase in temperature in presence of Sypro Orange, a dye that binds to […] residues that become exposed upon unfolding of the protein, using the Lightcycler (Roche) for detection. […] In SEC analysis, the Nanobodies were analyzed on a Phenomenex matrix to allow detection of multimers, aggregates or ‘stickyness’.
row,IC50 [nM],Binder
1,0.07,B1
2,0.05,B2
3,0.06,B3
4,0.07,B4
5,0.05,B5
6,0.07,B6
7,1.9,B7

# Molecular target: T2, full length human OX40L expressed on …
# Assay: cell-based or functional assay
"IC50, T-cell activation assay, donor 10, +10% FBS [nM]","IC50, T-cell activation assay, donor 10, +10% HS [nM]","IC50, T-cell activation assay, donor 11, +10% FBS [nM]","IC50, T-cell activation assay, donor 11, +10% HS [nM]","IC50, T-cell activation assay, donor 12, +10% FBS [nM]","IC50, T-cell activation assay, donor 12, +10% HS [nM]","IC50, T-cell activation assay, donor 13, +10% FBS [nM]","IC50, T-cell activation assay, donor 13, +10% HS [nM]",Binder
203,161,61.2,30.2,22.1,42.9,84.4,120,B8

# Molecular target: T1, biotinylated hOX40L (R&D Systems, …)
# Assay: hOX40L/hOX40 AlphaScreen, native sample
# Method: as §1, §2
row,IC50 [nM],Binder
1,0.07,B1
2,0.05,B2
3,0.05,B3
4,0.07,B4
5,0.06,B5
6,0.07,B6
7,0.31,B7

# Molecular target: T1, biotinylated hOX40L (R&D Systems, …)
# Assay: AlphaScreen, 120 pM biotinylated hOX40L + 0.2 nM hOX40/Fc
# Method: as §1
row,IC50 [nM],Binder
1,1.97,B9

# Molecular target: T3, recombinant human OX40L (extracellular …)
# Assay: cell-based or functional assay
row,"IC50, T cell assay with rec. hOX40L [nM]",Binder
1,1.54,B1
2,1.6,B2
3,2.46,B3
4,2.3,B4
5,1.15,B5
6,1.43,B6

# Molecular target: T1, biotinylated hOX40L (R&D Systems, …)
# Assay: hOX40L/hOX40 AlphaScreen, assay 1, native
# Method: Next, streptavidin donor beads were added and incubated for an additional 1 hour. Fluorescence was measured by reading plates on the EnVision Multilabel Plate Reader using an excitation wavelength of 680 nm and an emission wavelength of 520 nm. […]
row,IC50 [nM],Binder
1,0.076,B10
2,0.035,B11
3,0.093,B12
4,0.127,B13
5,0.057,B14
6,0.152,B15
7,0.269,B16
8,0.101,B17
9,0.046,B18
10,0.065,B19
11,0.084,B20

# Molecular target: T2, full length human OX40L expressed on …
# Assay: cell-based or functional assay
# Remark: another data set of the same source
"IC50, T-cell activation assay, donor 1 [nM]","IC50, T-cell activation assay, donor 2 [nM]","IC50, T-cell activation assay, donor 3 [nM]","IC50, T-cell activation assay, donor 4 [nM]",Binder
69.1,57.2,35.1,5.6,B8
80.2,131,57.6,85.2,B9

# Molecular target: T1, biotinylated hOX40L (R&D Systems, …)
# Assay: hOX40L/hOX40 AlphaScreen, assay 3, heated at Tm+10 C
# Method: as §1, §2
row,IC50 [nM],Binder
1,0.143,B10
2,0.126,B21
3,0.106,B22
4,0.094,B23

# Molecular target: T2, full length human OX40L expressed on …
# Assay: competition FACS, 3.1 nM hOX40/Fc on hOX40L expressing cells
row,IC50 [nM],Binder
1,217,B9

# Molecular target: T1, biotinylated hOX40L (R&D Systems, …)
# Assay: hOX40L/hOX40 AlphaScreen, assay 3, native
# Method: as §1, §2
row,IC50 [nM],Binder
1,0.143,B10
2,0.118,B21
3,0.091,B22
4,0.079,B23

# Molecular target: T1, biotinylated hOX40L (R&D Systems, …)
# Assay: hOX40L/hOX40 AlphaScreen, assay 2, heated at Tm+10 C
# Method: as §1, §2
row,IC50 [nM],Binder
1,0.314,B12
2,0.262,B13
3,0.557,B16
4,0.156,B17
5,0.164,B18
6,0.221,B20

# Molecular target: T1, biotinylated hOX40L (R&D Systems, …)
# Assay: hOX40L/hOX40 AlphaScreen, assay 2, native
# Method: as §1, §2
row,IC50 [nM],Binder
1,0.314,B12
2,0.22,B13
3,0.735,B16
4,0.134,B17
5,0.145,B18
6,0.256,B20

# Molecular target: T2, full length human OX40L expressed on …
# Assay: cell-based or functional assay
# Remark: another data set of the same source
"IC50, IL4 production, T-cell activation assay, donor 1 [nM]","IC50, IL4 production, T-cell activation assay, donor 2 [nM]","IC50, IL4 production, T-cell activation assay, donor 3 [nM]","IC50, IL4 production, T-cell activation assay, donor 4 [nM]",Binder
80,131,58,85,B9

# Molecular target: T3, recombinant human OX40L (extracellular …)
# Assay: cell-based or functional assay
# Remark: another data set of the same source
row,"IC50, T cell assay with rec. hOX40L [nM]",Binder
1,11,B10
2,12,B11
3,32,B12
4,64,B13
5,18,B14
6,133,B15
7,126,B16
8,29,B17
9,43,B18
10,76,B19
11,57,B20
